Experiment: soluble fraction after stress (log2 fold change); higher = more stays soluble; pooled small domains, quantitative proteomics
Conditions: stress: 50 degC
How it was run: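 The stress applied to every library was 50°C. These custom libraries of small protein domains were pooled and measured at high throughput with quantitative proteomics as the read-out. Aggregation propensity is expressed as the base-two logarithm of the fold change in how much of each protein remains soluble. The higher the value, the more of that protein stays in solution.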

First: HMSMTLSVLDDVRGLSESRRKQLFHSFGSIKKLREQSKETLMSIPYLPEKVALELYDKLHEE
Second: HMKEIKRLVELSPGRYFIEGATNIRVFGINGSLLLDTKGETVDLSDLAKGVYLLKTDGVTYKVL
The “soluble fraction (log2)” value of the first is higher: -0.218 for the first, -0.543 for the second.

First: HMARTDVKLREVAQELLRMGLLEESLRPHLYRTALASMERLNATLEPLDLIARADEIRGLVFLAVRH
Second: HMLKDQSIAQLEKNLDDLKGLMRKMFGSSDVPKITKMISDIESSLANFNQSKANKLIVQTTNYISSKL
The “soluble fraction (log2)” value of the first is lower: -2.44 for the first, -0.36 for the second.

Compared with “HMKHYIDFIAEQLKTLTAIPSPSGYTKNATDYLMKLLQDMGYEPKLSRKGNVFVTLGGDGEPLVLAAHVD”, “HMVLSKGAKELLDFIMREGEVTTSKVVQKFGGSAQNASAKLKKLYATGLILGSKAVAESGGLEFVYKA” is higher in “soluble fraction (log2)” value: -0.114 for the first, 0.393 for the second.

“HMPKDLEKRAAILAAAKHLFPVHGFEGTSMDAIAALANVSKLTVYSHFKDKESLFTEAIREK” and “HMDPSKMKIDELEIATRTATALADGGIKSVAGLIRKSASALKELDGVGDKAIAEITEALEKLGLELKG” are within 0.2 log units of each other in “soluble fraction (log2)” value: -0.087 for the first, 0.0501 for the second.

Compared with “HMEINEDEIYEKIMIEIEQDNKVKSTWAKALSQSDGNKDKAESLYISMRFEELKYHQSYQKEELNLKDNQQ”, “HMADKNIIGVLSAADNLGKVRITTANGEKYIITVPDGLSDIVKTYWEEEVSVKYVIEKRRKILVDIDG” is lower in “soluble fraction (log2)” value: 0.0911 for the first, -1.67 for the second.

“HMEETLRELAVKISKQVIKTGRNSVLEPMNPYERRIIHAVISEIEGVSSKSVGEDPNRKVVIMSTNP” and “HMAATNVKVPDLKGWDYNNAVGKYGDKLSFVKKSIYSDSVSKGIIIYNARVGETVAQGTTIEVTVSLGPKG” are within 0.2 log units of each other in “soluble fraction (log2)” value: -0.126 for the first, -0.205 for the second.

Compared with “HMTPELTAEEREVLSLLGDEPRTLAELIAASGRDYAALSVLLMGLELSQAVRQLPGNRYERF”, “HMNNTIKFFVSQDDDSTRLDVFLSKKIENLTRSNIKKFINLNNVKINKATINSPSKKVKLYDEIEIKFSS” is lower in “soluble fraction (log2)” value: -0.934 for the first, -1.72 for the second.

Going from “HMQGTTTELLIQKSALYEELNDPEKALNAMFDAFEMDSLNVNVLHRIVSLLLDKEENEKAILYNQLIIDH” to “HMALKQADFDFIRQMIQQRAAIVLDDNKHYFVESRLGPVVEETGSKSLDQLIDQLRSSSNSLLQQKVTEAI”, the “soluble fraction (log2)” value falls from 0.126 to -0.199.

Going from “HMITVPKVINMSETQARQTLDALGLNVTLSATQVMNDKIPYGYVAAQSYSAGKEVPAGTTIELTMSIGL” to “HMKNLKLVSNTDGIRIDSWLADEFEDYSRSYLRKLIDQDLVYVNGNKIKANYKLKKGDEISISIPEPE”, the “soluble fraction (log2)” value rises from -0.945 to 0.142.

“HMQESVTVSAQALRRLLEKGDGDAALLYLALLRHHGTIQPRALAGELRWERPRIEAAEEALRQMGLIA” and “HMETVRLSVDAQGAYYWNEQRVDDSALPDLLREASGRKPQPDLHIRGDKAVRYERVAEAMAAAQRAGLKKI” are within 0.2 log units of each other in “soluble fraction (log2)” value: -0.0318 for the first, 0.0588 for the second.

Compared with “HMSGMNSDHRVNGNIHTFLIQHDLGTKWSVFTEQLLKQVFRSFLPDKELNFQTTDSTVILKVSLGSDFNEH”, “HMNPNPFVNLSPRELEVLNLLFKGYGVLEISNELNIGQTTASTFKSRILKKTSTHSVVELIKLAEQYGFIP” is lower in “soluble fraction (log2)” value: -0.0505 for the first, -0.508 for the second.

Compared with “HMEESTYQWNNFVRDFYASRVSAQYTNKLKVAAILWHHVKNTPQSKIYHDNLVSKYAEEINYFK”, “HMGERVDGVVKFFNGQKGFGFIQREDGGPDAFVHISAVERAGMAGLDEGQRVSFELELDRRGKQAAINLTP” is higher in “soluble fraction (log2)” value: -2.51 for the first, 0.00122 for the second.

Going from “HMLPVQGEEVAPGLYKFDFPFLADKRVWEKTINAFKAEHPELKVNYIYTGPDELNSKKKTHVLVYVFTES” to “HMGKQPLYEQLVDLLRDRIENDMETGELLPSERKLAHHFGLSRTTVRLAMDRLETLGLITRVHGKDTFVAE”, the “soluble fraction (log2)” value falls from -0.0974 to -1.17.

Going from “HMIQVNKTQALIIEEMRDNPNITLLELQKTLSLGRTAIQNNVSSLRKRQIIKRVGSNKNGYWEVTDK” to “HMKLIRIPFILTEGPDSQKITIDVDGDEEFRLGDVFEEDDKLWTVNQILVSGERKAKRSMAGEVMRISALR”, the “soluble fraction (log2)” value rises from -1.95 to -1.26.

Compared with “HMTYFDIAPELLTVYKEINDIPRDINQIVRKTGLSINEVSYKTMILQLEDKIVELPGQRFIRNS”, “HMGGPTARQMEVLSLIAQGLPNKRIADELGIAERTVKLHITALLDSLGARNRTHLLVVARERGM” is lower in “soluble fraction (log2)” value: -1.99 for the first, -2.21 for the second.

Going from “HMNPAYTDSRMKTFLEELPVMKASLSQKHVTRFLVWQEYIGRHPDGYGKSQFFYHLKQNLVAAKG” to “HMGESYQIKDGELLVDIAQRVKPAGMTLRQTINALVAANPRAFRNGNPDLMYRGATLTIPDGDTLRRLAH”, the “soluble fraction (log2)” value rises from -0.56 to 0.131.

First: HMSWAGRRSLAALEARYRDETGISNLKIKHNGVLGYHIEVPSKSADKLMAPDSGFTHRQTLAGAVR
Second: HMVFRFELQPSSATPLYRQIVEQVTRAVAAGVLRDGEELPSVRAVAQEYVINPMTVSKAYSLLEAQSI
The “soluble fraction (log2)” value of the first is higher: 0.0529 for the first, -0.349 for the second.

Going from “HMSFKQARFMMDAANGKALAWLYSHAEVLDRKDQGENIEIHVMISPADLSRFVNAFGYQPVQS” to “HMTVLSKEEFVAIEQRLLQLLGTAPVDNKILLQQLSGIKKEKAWKVLSFLQAENKIGMDATGRVYL”, the “soluble fraction (log2)” value falls from -0.2 to -0.439.

Going from “HMTTQTTKYVNTTAGLNVRTGPSTSYAKIVTLSYGQSVNVLSTSNGWSKINYNGSTGYVSSQYLQSTKPS” to “HMSKPIREVAYETLKNAIVTGEIPAGSRIVETEYAERMHISRTPLREALRKLERDGLVEYVVRRGVVVRAF”, the “soluble fraction (log2)” value falls from -0.619 to -1.54.

Going from “HMKERVSWDERLERFAKHITENESLPYPSSKEYAWFEENKALYDAGELEPVRAQSFAFLLKIMRRMNL” to “HMNLYHALDQQGEVYLTIPPRQSGRGKVTLMIDGRVREMDAMTDGDALKTGSKVRVTEILDENALKVEAM”, the “soluble fraction (log2)” value rises from -0.491 to 0.207.

Going from “HMDTHRLNYSDFVAEVQAQRVSKVVIDGYTIVGQRTNGETFETVRPALQDPKLVDDLLQNNVIIEGKQPE” to “HMTATSKKAAWDEVNKIFPTDYERSAAESERAGYAIFRSTAEGVNAWISDLGDRLEINLPDGKTVNIWIEE”, the “soluble fraction (log2)” value falls from 0.0106 to -0.282.

Compared with “HMINRMGRLVEALSHMIANTKPGARLPSEPELARQLGVSRATLREAMRTFEAQGMIHRRQGAGTFVVH”, “HMSNEWIEISAKTVDDAINEGLIRLGTTTDKMDVEVLEKESAGFLGFIGKHDAKIRVRFKEV” is higher in “soluble fraction (log2)” value: -0.402 for the first, 0.105 for the second.

“HMGVVEEVAADFEGRAVVGKVDVDEQTELARRFGIMSIPTLVVMKGGKVVEQAVGARGKADIAAMLERH” and “HMDDPQAELLARAVRRVALAAAERTRRNEYGGVYLGLFRQFGISSYRRTPPARLHEALEWLERWRGDLM” are within 0.2 log units of each other in “soluble fraction (log2)” value: 0.0848 for the first, -0.0675 for the second.

Compared with “HMKTYGGDNSLHKFDEHHSWMVAKYGPVVKQTINGETKWLKVKKDLTLAQVKKMKLEDVLLPKSQT”, “HMGMLATFVTSAKVPDDVVYAITKEVFENLDEFKKLHPALEGLTRETMLEGLTAPIHPGALKYYKEAGLM” is lower in “soluble fraction (log2)” value: -0.152 for the first, -0.522 for the second.

Going from “HMPLNAFDVAGYRLGYGGGYFDRTLAALSPRPLAVGVGFEINRLESIRPEAHDQRLDWIVTENGAFRPA” to “HMSISEFNYTEFNGLVEKGQVSEVTISGREIEGRLTSGESFKTYSPETDNSALVGDLLKNNVKINGKP”, the “soluble fraction (log2)” value rises from -0.867 to 0.12.

Compared with “HMHGQGTYTSPDGTKYVGDWQDEKMHGQGTYTYPDGMKFVGEFKDNKPWNGTGYDKYGNVKATFSNGVGKS”, “HMNPTTQIQYNLPKSEFVSIYIYDLIGNRVKSLINNYQDAGYKSVYWDAMNDLGQPVSAGMYIY” is lower in “soluble fraction (log2)” value: 0.066 for the first, -0.134 for the second.

Compared with “HMGPKALLKIPGLQEVDAELLFKEGYKSISAVASADPEMLKAIPGVDEQKVTEWVTGAEQILSQQVNKGA”, “HMSSSYVYGGNGEIVILSDVSKHLNVYNLNGQKVTDVNLTAGELQRISIATGIYVVGGKKIVV” is lower in “soluble fraction (log2)” value: 0.342 for the first, -2.92 for the second.

For “HMRRLGTTEIAGILRREISQGILIAKERLPSERSLADTYGVARGTVRQALNLLAREGLVQIRRSSGAYVTF”, the “soluble fraction (log2)” value was -0.33.

Source: the domain aggregation screens of Martell et al. (2025)
